The Immune Epitope Database (IEDB)

What was measured:
Assay in all cases: IEDB peptide-MHC binding, purified MHC/competitive/radioactivity; filed as Kd, often an IC50 or EC50 that approximates it; ≥ and ≤ were set here for values at or beyond the usual limits of such assays
HLA-A*68:01 = biological target: HLA-A*68:01
HLA-A*33:01 = biological target: HLA-A*33:01
HLA-A*31:01 = biological target: HLA-A*31:01
HLA-A*03:01 = biological target: HLA-A*03:01
HLA-A*11:01 = biological target: HLA-A*11:01
[1] = source organism: Mammarenavirus brazilense
[2] = source organism: Mammarenavirus juninense
[3] = source organism: Mammarenavirus whitewaterense
[4] = source organism: Vaccinia virus WR
[5] = source organism: Dengue virus 1 Brazil/97-11/1997
[6] = source organism: SARS coronavirus Tor2
[7] = source organism: Dengue virus 2 Jamaica/1409/1983
[8] = source organism: Dengue virus 3 Martinique/1243/1999
[9] = source organism: Mammarenavirus guanaritoense
[10] = source organism: Dengue virus 4 Philippines/H241/1956
[11] = source organism: Mammarenavirus machupoense

Sequence | Kd (HLA-A*68:01; [4]) [nM] | Kd (HLA-A*33:01; [4]) [nM] | Kd (HLA-A*31:01; [4]) [nM] | Kd (HLA-A*03:01; [4]) [nM] | Kd (HLA-A*11:01; [4]) [nM] | other results
KCFGNTALAK | – | – | – | – | – | Kd (HLA-A*68:01; [1]): ≥ 22500 nM; Kd (HLA-A*33:01; [1]): ≥ 70000 nM; Kd (HLA-A*31:01; [1]): 972 nM; Kd (HLA-A*03:01; [1]): 830 nM; Kd (HLA-A*11:01; [1]): 8480 nM
KCFGNTAVAK | – | – | – | – | – | Kd (HLA-A*68:01; [2]): 18800 nM; Kd (HLA-A*33:01; [2]): 1470 nM; Kd (HLA-A*31:01; [2]): 181 nM; Kd (HLA-A*03:01; [2]): 579 nM; Kd (HLA-A*11:01; [2]): 6460 nM
KIGHHVELQH | – | – | – | – | – | Kd (HLA-A*68:01; [3]): ≥ 70100 nM; Kd (HLA-A*33:01; [3]): ≥ 49800 nM; Kd (HLA-A*31:01; [3]): 25.2 nM; Kd (HLA-A*03:01; [3]): ≥ 47100 nM; Kd (HLA-A*11:01; [3]): ≥ 69700 nM
KLQARNIQK | 169 | 927 | 13.5 | 8.03 | 17.8 | –
KVSAQNISFK | 3380 | 3320 | 433 | 5070 | 131 | –
LAIKNYYRK | 12.7 | 1440 | 783 | ≥ 45700 | 75.9 | –
LAMGIMMLK | – | – | – | – | – | Kd (HLA-A*68:01; [5]): 20.6 nM; Kd (HLA-A*03:01; [5]): 76.3 nM; Kd (HLA-A*11:01; [5]): 32.7 nM
LFLLFLEITY | 274 | 9640 | 3460 | 1960 | 3720 | –
LLFADINGK | – | – | – | – | – | Kd (HLA-A*68:01; [6]): 120 nM; Kd (HLA-A*33:01; [6]): ≥ 50900 nM; Kd (HLA-A*31:01; [6]): 2560 nM; Kd (HLA-A*03:01; [6]): 30.8 nM; Kd (HLA-A*11:01; [6]): 8.81 nM
LLGDSDSVAK | 10900 | ≥ 70000 | 3580 | 203 | 584 | –
LMSGKGIGK | – | – | – | – | – | Kd (HLA-A*03:01; [7]): 75.2 nM
LTALLSCIR | 7.66 | 1100 | 244 | ≥ 78000 | 914 | –
LTNKHCLNNY | ≥ 21200 | ≥ 66000 | 4420 | 1380 | 2070 | –
LTNTTTESR | – | – | – | – | – | Kd (HLA-A*68:01; [7]): 73.6 nM
LTYQNKVVK | – | – | – | – | – | Kd (HLA-A*03:01; [8]): 11.8 nM; Kd (HLA-A*11:01; [8]): 70.5 nM
MIIGHIGHHY | 19.3 | ≥ 55400 | 151 | 47 | 103 | –
MLQGRGPLK | – | – | – | – | – | Kd (HLA-A*03:01; [7]): ≤ 1 nM; Kd (HLA-A*11:01; [7]): 124 nM
MMFINSTCY | 145 | 3930 | 129 | 21.2 | 159 | –
MMNRDKIPIY | ≥ 70200 | ≥ 70000 | 10400 | 1030 | 3800 | –
MSHVKSVTK | 9 | 1930 | 20.1 | 18.6 | 8.05 | –
MSMGDIITY | 1.85 | 13300 | 8570 | 134 | 5.67 | –
NAPIKEFKAK | 187 | 3310 | 8830 | 15600 | ≥ 27700 | –
NFFTELENK | 1280 | 11300 | 7320 | ≥ 69500 | 1690 | –

Sequence | Kd (HLA-A*68:01; [4]) [nM] | Kd (HLA-A*33:01; [4]) [nM] | Kd (HLA-A*31:01; [4]) [nM] | Kd (HLA-A*03:01; [4]) [nM] | Kd (HLA-A*11:01; [4]) [nM] | other results
NIILSKIPY | 778 | 9760 | 14400 | 1180 | 552 | –
NISIIVLFQR | 3.84 | 1400 | 33.6 | 907 | 670 | –
NIVTFINDY | 535 | ≥ 77700 | 14600 | ≥ 78000 | ≥ 45900 | –
NLDPDNKMSY | 1460 | ≥ 65800 | ≥ 41300 | 950 | 582 | –
NTMCTEETKR | 17.8 | 4210 | 13300 | ≥ 32200 | 6410 | –
NVKKKNEGK | 142 | 17600 | ≥ 20400 | 6520 | ≥ 29700 | –
NYVHCFRKPH | – | – | – | – | – | Kd (HLA-A*68:01; [9]): ≥ 70100 nM; Kd (HLA-A*33:01; [9]): 1430 nM; Kd (HLA-A*31:01; [9]): 12000 nM; Kd (HLA-A*03:01; [9]): ≥ 70000 nM; Kd (HLA-A*11:01; [9]): ≥ 69700 nM
PVSMTYLYNK | 12900 | ≥ 70000 | 6150 | 1190 | 107 | –
QFANVISKIY | 1950 | 1200 | 1140 | 3390 | 8660 | –
RFWELVDKER | – | – | – | – | – | Kd (HLA-A*31:01; [10]): 5.19 nM
RFWELVDRER | – | – | – | – | – | Kd (HLA-A*31:01; [7]): 0.343 nM
RLGVRATRK | – | – | – | – | – | Kd (HLA-A*68:01; source organism: Hepacivirus hominis): ≥ 80000 nM
RLKMDKLELK | – | – | – | – | – | Kd (HLA-A*03:01; [8]): 34.6 nM
RMLNILNGRK | – | – | – | – | – | Kd (HLA-A*03:01; [10]): 13.8 nM
RQMEGEGVFK | – | – | – | – | – | Kd (HLA-A*03:01; source organism: Dengue virus 2 Peru/IQT2913/1996): 23.9 nM
RVIDPRRCLK | – | – | – | – | – | Kd (HLA-A*68:01; [5]): 28 nM; Kd (HLA-A*31:01; [5]): 0.766 nM; Kd (HLA-A*03:01; [5]): 8.63 nM
SDGTFKIGLH | – | – | – | – | – | Kd (HLA-A*33:01; [11]): ≥ 47500 nM; Kd (HLA-A*31:01; [11]): ≥ 36100 nM
SGNDIANCLR | – | – | – | – | – | Kd (HLA-A*33:01; [5]): 141 nM
STGSQLAKR | – | – | – | – | – | Kd (HLA-A*31:01; [5]): 215 nM
VQTKPGLFK | – | – | – | – | – | Kd (HLA-A*03:01; [7]): 144 nM; Kd (HLA-A*11:01; [7]): 102 nM
VTFKTAHAK | – | – | – | – | – | Kd (HLA-A*68:01; [5]): 43.9 nM; Kd (HLA-A*03:01; [5]): 4.15 nM; Kd (HLA-A*11:01; [5]): 89.7 nM
VTFKVPHAKR | – | – | – | – | – | Kd (HLA-A*68:01; [10]): 21.5 nM
YQNKVVKVQR | – | – | – | – | – | Kd (HLA-A*33:01; [8]): 701 nM
